In article PMC3477478 one finds Km data, which are given here for one protein.

Substrate in the data set: CC(=O)O
Put plainly: purified protein. Conditions: 10 mM ATP, 0.47 mM HSCoA, 10 mM MgCl2, 120 mM hydroxylamine, 10 mM reduced glutathione, Tris/HCl pH 7.5, 37 °C, apparent Km.

B1: K. stuttgartiensis ACS (kustc1128), AMP-forming acetyl-CoA synthetase (Candidatus Kuenenia stuttgartensis) (protein)
chain: MNKTEIINKHPEAFNLICYEDQHKNFSWETVKKELGVGGNKVNIAYEAIDKHATTWRKNKVALYWEGSDGTHLKYTFQELKILSDKCANMLQSLGVGKGDRVFLFLPRLPELFINMIAIAKLGAISGPMFSAFGPDAVRDRLQNSEAKVLITTPELKERVDAVLWELPKLERIVLVSVKEDYELEEGNVCYKTLMKDAPERFEMEWMDMEDPLYLLYTSGTTGKPKGITHVHNDMISYYITTKWSLDLRDDDIYWCTADPGWVTGTVYGMWGPWLNGVSMYIYDGRFDVNKWYEAIQSYKITVWYTAPTALRMLMKSGDYLVAQYDLESLRYICSVGEPLNPEVIKWGMNVYNLPIHDTWWQTETGSIMIANYPCIPIKPGSMGKPFPGIKAAIIDSEGNELPDGHHGILALKPGWPSMLRKVWGDEGRFNEYFNITGWYTTGDTAYKDEEGYFWFVGRADDVINTSGHRVGPFEVESALLEHRAVAEAGVIGKPDPERGEIIKAFIALKEGFKPSSELGEEIKKFIKHHLAAHAYPREIEFCENLPKTRSGKIMRRLLKAKDLGLPTGDISTLED
With B1, the Km is on record as 0.2 mM.
